Assay results: article PMC9942873 (Immunity, 2023)
Where a chain is given by its changes, count along the chain named.

B1: RUPA-81 (antibody, V domains shown)
VH: EVQLVATGGGLIQPGGSLRLSCTASGFNVSRMYMSWVRQAPGKGLEWVSVIYSDSSGGSTYYTDSLKGRFIISRDNSQNTLYLQMNSLRVDDTAIYYCARDVRGWGYLDFWGQGTLVTVSS
VL: EIVLTQSPGTLSLSPGERAALSCRASQGVSSSFFAWYQQKPGQAPRLLIYGASSRATGIPDRFSGSGSGTDFTLTISRLEPEDFATYYCQQYGYSPWTFGQGTKVEIK
notes: human IgG1; source: recombinant human IgG1, 293T (Protein A purified) or GenScript
B2: RUPA-70 (antibody, V domains shown)
VH: QVQLQESGPGLVKPSQTLSLTCTVSGGSISIGGYYWSWIRQHPGKGLEWIGYIYYSGTTYYNPSLKSRVIISIDTSKNQFSLRLKSVTAADTAVYYCARTGLVAAIRGSRRGQQGDYFDYWGQGTLVPVSS
VL: SYELTQPPSVSVSPGQTASLTCSGDKLGDKYASWYQQKPGQSPVLVIHQDKKRPSGIPERFSGSNSGNTATLTISGTQAMDEADYYCQAWDSNTGVFGGGTKLTVL
notes: as for B1
B3: RUPA-44 (antibody, V domains shown)
VH: QLQLQESGPGLVKPSETLSLTCTVSGGSISRSPYYWGWIRQPPGKGLEWFGSIYNNGSTYYNPPLKSRLTISVDTSKNQFSLKLSSVTAADTAVYYCARHGGSTGMKVVVIAPPDYWGQGTLVTVSS
VL: DIQMTQSPATLSASVGDRVTITCRASQSISSWLAWYQQKPGEAPKLLIYKASSLQSGVPSRFSGSGSGTKFSLTISSLQPDDFATFYCQQYHSYPYTFGQGTKLEIK
notes: as for B1
B4: RUPA-86 (antibody, V domains shown)
VH: QVQLVQSGAEVKKPGASVKVSCKSSGFRFTGYYIHWVRQAPGQGLEWMGCINPNNGGTNYAQKFQGRVTMTRDTSITTAYMDLSRLKSDDTAVYYCARLVAYDQGLDVWGQGTTVTVSS
VL: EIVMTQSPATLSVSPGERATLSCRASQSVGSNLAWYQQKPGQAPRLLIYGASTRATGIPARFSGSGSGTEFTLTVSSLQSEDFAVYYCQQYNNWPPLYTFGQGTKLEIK
notes: as for B1
B5: RUPA-68 (antibody, V domains shown)
VH: QVQLVQSGAELKKPGASVKVSCKASGYTFTSHDITWVRQAAGQGLEWMGWMNPNTGDKGYAQKFQGRVTMTRNMSTRTAYMEVNSLTSEDTAVYYCARGVGTYHGAGGWFDPWGQGTLVTVSS
VL: QSVVTQPPSVSETPGQRVTISCSGSSSNIGSNIVSWYQQLPGTAPKLLIYSDNQRPSGVPDRFSASKSGTSASLAISGLQSEDEADYYCATWDDSLKRGVFGGGTKLTVL
notes: as for B1
B6: RUPA-84 (antibody, V domains shown)
VH: QVQLVQSGAEVKKTGASVKVSCKASGYTFTSHDIIWVRQAAGQGLEWMGWMNPNTGKKGYAQKFQGRVTLTRNMSTGTAYMELNSLRSDDSAVYYCARGVGTYYGSEGWLDPWGQGTLVTVSS
VL: B5 VL with V4L, V10A, I29V, I33S, S35N, I49M, S51N, D52T, A65G, Q80R
notes: as for B1
B7: RUPA-35 (antibody, V domains shown)
VH: QVQLVQSGAEVKKPGASVKVSCKASGYTFTSHDIIWVRQAPGQGLEWMGWMNPNIGDTGYAQKFQGRLSMTRKMSISTAYMELSSLRSEDTAVYYCSRGVGTYHGSGGWFDPWGQGTLVTVSS
VL: B5 VL with V4L, V10A, S26T, I33T, L40Y, I49M, A65G, D86E
notes: as for B1
B8: RUPA-57 (antibody, V domains shown)
VH: QVQLVESGGGVVQPGRSLRLSCTASGFSFSDYGMHWVRQAPGKGLEWVAVISYHGRDKSYADSVKGRFTISRDNSKKTLYLQMNSLTAEDTALYYCAKSNDHYDNSGYFVYWGLGTKVTVSS
VL: SYELTQPPSVSVSPGQTATITCSGDALPKKFAFWYQQKSGQAPVLVIYEDTKRPSGIPERFSGSSSGTLATLTISGAQVEDEADYYCYSRDSSNTQRVFGGGTKVTVL
notes: as for B1
B9: RUPA-54 (antibody, V domains shown)
VH: QVQLVESGGGVVQPGRSLRLSCTASGFTFRSYGIHWVRQAPGKGLQWVAFISYDGRNKYYADSVKGRFTISRDNSKNTLYLQMSGLRADDTAVYYCAKDSDNDCTATSCYTVSWGQGTLVTVSS
VL: SYELTQPPSVSVSPGQTARITCSGDALPKKYAYWYQQKSGQAPVLVIYEDKKRPSGIPERFSGSSSGTMATLTISGAQVEDEADYYCYSTDSRTDHGGIFGGGTKLTVL
notes: as for B1
B10: RUPA-61 (antibody, V domains shown)
VH: QVQLVQSGAEVKKPGASVKVSCKASEDTFSSYYIHWVRQAPGQGLEWMGMMNPSGGGTRYTQKFQGRVTMTSDTSTSTVYMEVISLRSEDTAVYYCARVRKRDAYNNRNWGSVFGGMDVWGQGTTVTVSS
VL: QSALTQPPSASGSPGQSVSISCTGTSSDVGGHDYVSWYQHHPGKAPKLMIYEVSKRPSGVPDRFSGAKSGNTASLTVSGLQAEDEADYYCSSFGGSNNLVFGGGTKVTVV
notes: as for B1
B11: RUPA-74 (antibody, V domains shown)
VH: QVQLVQSGAEVKKPGASVKVSCKASGYNFLYHDINWVRQAPGQGLEWMGWMNPNTGNRGYAQQFQDRVSLTRDMSQGTAYMELRNLRSDDTAVYYCARGVGSLYGSGGWIDPWGQGTLVTVSS
VL: QSVLTQPPSASETPGQRVTISCSGSSSNIGSNTVNWYQQVPGTAPKLLMYNDNHRPSGVSDRFSGSKSGTSASLAISGLQSADEADYYCETWDDSLKRRVFGGGTKLTVL
notes: as for B1
B12: RUPA-47 (antibody, V domains shown)
VH: QVQLVQSGAEVKKPGASVKLSCTASGYTFTNFGITWVRQAPGQGLEWMAWISVYSGDTDYAQRFQGRVTMTTDTSTRTAYMEMRSLSFDDTAVYYCVRGGRDSPILGGYWGQGTLVTVSS
VL: EIVLTQSPGTLSLSPGERVTLSCRASQSVRSMYLAWYQQKPGQAPRLLIHGASIRATGIPDRFSGSGSGTDFTLTISRLEREDFAVYYCHQYGSSPLTFGGGTKVESK
notes: as for B1
B13: RUPA-72 (antibody, V domains shown)
VH: EVQLVESGGGLVQPGGSLRLSCAASGFTFSYYWMHWVRQAPGKELVWVSRIKSDGSSGTTTDYADSVKGRFTISRDTAKNTLYLQMNSLRAEDTAVYYCARAGCSNGVCPPRYYYHGMDVWGQGTTVTVSS
VL: EIVLTQSPGTLSGSPGERATLSCRASQSIRSNYLAWYQQKPGQAPRLLIYGASSRATDIPARFSGSGSGTDFTLTISRLEPEDFAVYYCQHYGNSRVTFGQGTKVEIK
notes: as for B1
B14: RUPA-83 (antibody, V domains shown)
VH: QVQLVQSGAEVKKPGASVKVSCKASGYIFTDYGITWVRQAPGQGLEWLGWISGYSYNTNYALKFQGRVTMTTDTSTSVTYMELRNLRSDDTAVYYCARDSRSSQLLQKFDLWGQGTLVTVSS
VL: DIQLTQSPSSLSASVGDRVTITCRASQTTRNFLNWYQQKPGKAPELLIYAASTLQSGVPSRFSGSGSGTDFTLTIKNLQPEDFASYYCQQSFSSPTFGQGTKVEIK
notes: as for B1
B15: RUPA-65 (antibody, V domains shown)
VH: QVQLVQSGAEVKKPGASVKVSCKASGYTFLYHDIIWMRQATGQGPEWMGWINPNTGNTGHAQKFQGRVTLTRNMSSGTAYMELRSLRSEDTAVYYCARGVGTYHGSGGWFDPWGQGTLVTVSS
VL: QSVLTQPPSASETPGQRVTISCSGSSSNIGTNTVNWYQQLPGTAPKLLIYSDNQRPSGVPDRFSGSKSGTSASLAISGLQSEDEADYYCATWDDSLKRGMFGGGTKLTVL
notes: as for B1
B16: RUPA-49 (antibody, V domains shown)
VH: B15 VH with H60L, T69S, T91R, V93I, Y95F, T120A
VL: B5 VL with V4L, V10A, I20L, N32H, I33T, S35N, Q38R, Y50H, N53D, A65G
notes: as for B1
B17: RUPA-53 (antibody, V domains shown)
VH: QVLLVQSGAEVKKPGASVKVSCKASGYTFLYHDISWVRQATGQGLEWMGWMNPNTGDTGYAQRFQGRVTMTRDMSISTAYLELGSLSSEDTAVYYCARGVGSYHGSGGWLDPWGQGTLVIVSS
VL: not shown
notes: as for B1
B18: RUPA-29 (antibody, V domains shown)
VH: QVHLVESGGGVVQPGRSLRLSCAASGFTFRSYGMHWVRLAPGKGLEWVTAIWYDGSKKHFADSVKGRFTISRDNSKNTLYLQMSSLRVEDTAVYYCARDFAHGAFYPVDWGRGTLVTVSS
VL: SYELTQPPSVSVSPGQTARITCSGDALPKKHAYWYQQKSGQAPVLVIYDDSKRPSGIPERFSGSSSGTMATLSISGAQVEDEAAYYCYSSDTSANYWVFGGGTKLTVL
notes: as for B1
B19: RUPA-50 (antibody, V domains shown)
VH: QVHLVESGGGVVQPGRSLRLSCAASGFTFRSYGMHWVRRVPGKGLEWVATISYDETFKDYPDSVKGRFTISRDNSKNTLFLQMNSLRPADTAVYYCAKDRAHSMHYFEYWGRGTLVTVSS
VL: SYELTQPPSVSVSPGQTARLTCSGDALPKKFAYWYQLKSGQAPVLVIYEDSKRPSGIPERFSGSSSGTTATLTISGAQVEDEADYYCYSRDGSGDQKNIFGGGTKLTVL
notes: as for B1

The binders below were run against recombinant full-length Pfs48/45 (Plasmodium falciparum 3D7, UniProt Q8I6T1) (assay: ELISA). Conditions: both partners purified.
recombinant full-length Pfs48/45, sequence (Q8I6T1 28-428): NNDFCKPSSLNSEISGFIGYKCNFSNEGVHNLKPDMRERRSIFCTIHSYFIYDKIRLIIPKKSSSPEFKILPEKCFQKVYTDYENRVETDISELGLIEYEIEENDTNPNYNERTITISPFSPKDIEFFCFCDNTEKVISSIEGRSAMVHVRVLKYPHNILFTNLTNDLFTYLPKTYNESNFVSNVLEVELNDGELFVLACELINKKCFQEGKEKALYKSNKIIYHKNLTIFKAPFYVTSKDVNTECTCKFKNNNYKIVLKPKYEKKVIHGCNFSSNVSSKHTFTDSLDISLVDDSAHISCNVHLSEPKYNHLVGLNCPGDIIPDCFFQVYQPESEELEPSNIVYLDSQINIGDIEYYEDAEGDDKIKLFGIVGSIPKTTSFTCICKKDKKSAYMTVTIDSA
B1: binds.
B2: binds.
B3: binds.
B4: binds.
B5: binds.
B6: binds.
B7: binds.
B8: binds.
B9: binds.
B10: binds.
B11: binds.
B12: binds.
B13: binds.
B14: binds.
B15: binds.
B16: binds.
B17: binds.
B18: binds.
B19: binds.

Each binder was assayed against Pfs48/45 D1-2 (Plasmodium falciparum 3D7, UniProt Q8I6T1) (assay: ELISA). Conditions: both partners purified.
Pfs48/45 D1-2, sequence (Q8I6T1 28-289): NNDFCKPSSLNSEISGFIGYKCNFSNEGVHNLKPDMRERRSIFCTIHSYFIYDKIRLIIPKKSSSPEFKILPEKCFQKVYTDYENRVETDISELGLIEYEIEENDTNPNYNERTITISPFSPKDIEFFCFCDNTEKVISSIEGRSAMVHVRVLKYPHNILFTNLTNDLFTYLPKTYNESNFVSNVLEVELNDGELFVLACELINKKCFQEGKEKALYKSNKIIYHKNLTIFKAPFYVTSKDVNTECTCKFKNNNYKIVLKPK
B1: binds.
B4: binds.
B5: binds.
B6: binds.
B7: binds.
B11: binds.
B14: binds.
B15: binds.
B16: binds.
B17: binds.

These binders were tested against Pfs48/45 D2-3 (Plasmodium falciparum 3D7, UniProt Q8I6T1) (assay: ELISA). Conditions: both partners purified.
Pfs48/45 D2-3, sequence (Q8I6T1 184-428): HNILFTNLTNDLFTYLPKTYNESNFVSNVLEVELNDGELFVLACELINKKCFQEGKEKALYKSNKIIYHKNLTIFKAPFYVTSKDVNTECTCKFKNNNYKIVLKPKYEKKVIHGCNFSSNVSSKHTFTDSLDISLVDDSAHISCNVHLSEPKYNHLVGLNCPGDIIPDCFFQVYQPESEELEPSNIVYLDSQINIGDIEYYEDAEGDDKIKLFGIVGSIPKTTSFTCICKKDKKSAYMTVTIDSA
B1: binds.
B2: binds.
B3: binds.
B4: binds.
B5: binds.
B6: binds.
B7: binds.
B8: binds.
B9: binds.
B10: binds.
B11: binds.
B12: binds.
B13: binds.
B14: binds.
B15: binds.
B16: binds.
B17: binds.
B18: binds.
B19: binds.

Each binder was assayed against Pfs48/45 D3 (Plasmodium falciparum 3D7, UniProt Q8I6T1) (assay: ELISA). Conditions: both partners purified.
Pfs48/45 D3, sequence (Q8I6T1 287-428): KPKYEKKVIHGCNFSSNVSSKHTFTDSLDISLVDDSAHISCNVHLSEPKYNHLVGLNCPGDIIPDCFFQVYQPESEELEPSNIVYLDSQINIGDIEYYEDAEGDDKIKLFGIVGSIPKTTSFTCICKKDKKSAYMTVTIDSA
B2: binds.
B3: binds.
B8: binds.
B9: binds.
B10: binds.
B12: binds.
B13: binds.
B18: binds.
B19: binds.
